Source: PMC9122598, “NASP maintains histone H3–H4 homeostasis through two distinct H3 binding modes” (Nucleic Acids Research, 2022)

Tested on: H3–H4 tetramer
Test: GST pulldown of H3–H4 with frog GST-NASP.Sc
Type: binding
Procedure: As mentioned above the GST-tagged sNASPc, frog NASP.Sc and their mutants could not be separated into dimer and monomer peaks during the purification steps, the conformations of these proteins used for pulldowns were mixtures of dimer and monomer. […] All the samples were analyzed with SDS-PAGE.

B1: frog NASP.S: frog homologue of sNASP (N1/N2); tested as GST-NASP.Sc dimer/monomer mixture (protein)
chain: SAEKADGIDIDTEAKRLMGAGQKHLVMKDVRSAVNLFQEASSLLAKQYGETADECAEAFYSYGMSLLELARLENEGTEEKETEEEDVGNLQLAWEMLDLCKTIFKRQQSKEAQLKAAQAHQKLGEVCIESENYSQAVEDFLACLNIQKEHLEEHDRLLAETHYHLGLAYQYSSKHEEAISHFTQSIGVIEKRMDVLTKQLEASVGELVDEVKKEMDELKDLLPDIKEKIEDSKEAQKNATVTEKALKETLVGGSS
modifications: left off: GST, N-terminal, cleaved
notes: frog homologue of sNASP (N1/N2); tested as GST-NASP.Sc dimer/monomer mixture
In the absence of H3 αN-binding
  Retention of H3 vs H4 in pulldown: retained more H3 than H4
Incubation 0.3 M NaCl, wash […] NaCl
  Pulldown binding to H3–H4: H3 αN- and α3-binding sites are conserved
